# According to patent publication US20230285581A1:
# Key:
# [1] = molecular target: endogenously expressed human MSR1 on PMA-treated THP-1 cells (human) (UniProt P21757); assay: ECL cell binding, PMA-treated THP-1 cells
# [2] = molecular target: full length human MSR1 with a C-terminal Myc tag on HEK293.Myc.hMSR1 cells (human) (UniProt P21757); assay: ECL cell binding, HEK293.Myc.hMSR1 cells
# [3] = molecular target: full length monkey MSR1 on HEK293.mfMSR1 cells (Macaca fascicularis); assay: ECL cell binding, HEK293.mfMSR1 cells
# Chain of full length monkey MSR1 on HEK293.mfMSR1 cells (Macaca fascicularis) (chain, as listed by the source): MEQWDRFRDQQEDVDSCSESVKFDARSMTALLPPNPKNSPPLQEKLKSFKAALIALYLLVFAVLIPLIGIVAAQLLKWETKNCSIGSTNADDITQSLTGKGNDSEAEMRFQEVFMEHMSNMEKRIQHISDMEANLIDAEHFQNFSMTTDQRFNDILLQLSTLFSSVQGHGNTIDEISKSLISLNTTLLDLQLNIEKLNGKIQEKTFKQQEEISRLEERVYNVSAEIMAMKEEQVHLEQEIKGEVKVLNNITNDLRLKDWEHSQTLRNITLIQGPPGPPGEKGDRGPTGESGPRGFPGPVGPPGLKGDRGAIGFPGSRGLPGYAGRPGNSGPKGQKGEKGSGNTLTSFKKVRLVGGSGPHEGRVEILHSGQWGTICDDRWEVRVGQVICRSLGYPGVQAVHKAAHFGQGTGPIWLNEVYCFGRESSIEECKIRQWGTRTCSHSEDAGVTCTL
# [4] = molecular target: human MSR1 endogenously expressed on PMA-differentiated THP-1 cells (human) (UniProt P21757); assay: confocal imaging, 10 µg/mL antibody + Alexa Fluor 488 secondary on PMA-differentiated THP-1 cells
# Chain of human MSR1 endogenously expressed on PMA-differentiated THP-1 cells (human) (P21757 whole entry, the tested form may be a part): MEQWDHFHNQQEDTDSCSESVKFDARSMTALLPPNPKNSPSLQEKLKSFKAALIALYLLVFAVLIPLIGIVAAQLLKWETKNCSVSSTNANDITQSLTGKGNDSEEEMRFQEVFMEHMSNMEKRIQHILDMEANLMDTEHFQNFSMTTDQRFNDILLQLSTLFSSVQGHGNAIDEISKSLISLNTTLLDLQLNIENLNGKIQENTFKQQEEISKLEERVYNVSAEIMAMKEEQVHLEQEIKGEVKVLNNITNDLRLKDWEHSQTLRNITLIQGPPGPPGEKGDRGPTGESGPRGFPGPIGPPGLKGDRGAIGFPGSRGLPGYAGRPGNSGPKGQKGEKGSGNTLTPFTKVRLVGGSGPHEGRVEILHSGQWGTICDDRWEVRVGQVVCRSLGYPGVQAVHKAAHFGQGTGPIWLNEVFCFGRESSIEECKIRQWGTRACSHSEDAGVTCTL
# [5] = molecular target: human MSR1 extracellular domain expressed with a N-terminal nonahistidine tag (His9-hMSR1; R&D Systems, Cat #2708-MS) (human) (UniProt P21757); assay: competition ELISA; 100 nM antibody, competitor Ac-LDL, plate-coated His9-hMSR1
# Chain of human MSR1 extracellular domain expressed with a N-terminal nonahistidine tag (His9-hMSR1; R&D Systems, Cat #2708-MS) (human) (P21757 other isoform, or with tags, fused parts or gaps): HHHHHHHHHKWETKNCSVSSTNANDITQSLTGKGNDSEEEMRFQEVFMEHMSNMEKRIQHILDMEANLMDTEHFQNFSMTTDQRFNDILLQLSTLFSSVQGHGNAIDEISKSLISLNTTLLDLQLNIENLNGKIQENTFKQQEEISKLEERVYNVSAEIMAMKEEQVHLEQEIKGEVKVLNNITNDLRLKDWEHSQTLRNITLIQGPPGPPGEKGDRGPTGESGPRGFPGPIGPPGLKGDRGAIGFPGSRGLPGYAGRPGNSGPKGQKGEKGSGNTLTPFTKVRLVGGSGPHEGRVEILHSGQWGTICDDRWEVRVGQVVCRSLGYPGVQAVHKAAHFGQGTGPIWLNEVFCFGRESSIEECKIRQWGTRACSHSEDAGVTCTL
# [6] = molecular target: human MSR1 extracellular domain expressed with a N-terminal nonahistidine tag (His9-hMSR1; R&D Systems, Cat #2708-MS) (human) (UniProt P21757); assay: competition ELISA; 300 nM antibody, competitor biot-AGE-BSA, plate-coated His9-hMSR1
# [7] = molecular target: human MSR1 extracellular domain expressed with a N-terminal nonahistidine tag (His9-hMSR1; R&D Systems, Cat #2708-MS) (human) (UniProt P21757); assay: competition ELISA; 1 µM antibody, competitor 10 nM Ox-LDL, plate-coated His9-hMSR1
# [8] = molecular target: mouse MSR1 on RAW264.7 cells (mouse) (UniProt P30204); assay: flow cytometry, RAW264.7 cells, 10 ug/mL
# Chain of mouse MSR1 on RAW264.7 cells (mouse) (P30204 whole entry): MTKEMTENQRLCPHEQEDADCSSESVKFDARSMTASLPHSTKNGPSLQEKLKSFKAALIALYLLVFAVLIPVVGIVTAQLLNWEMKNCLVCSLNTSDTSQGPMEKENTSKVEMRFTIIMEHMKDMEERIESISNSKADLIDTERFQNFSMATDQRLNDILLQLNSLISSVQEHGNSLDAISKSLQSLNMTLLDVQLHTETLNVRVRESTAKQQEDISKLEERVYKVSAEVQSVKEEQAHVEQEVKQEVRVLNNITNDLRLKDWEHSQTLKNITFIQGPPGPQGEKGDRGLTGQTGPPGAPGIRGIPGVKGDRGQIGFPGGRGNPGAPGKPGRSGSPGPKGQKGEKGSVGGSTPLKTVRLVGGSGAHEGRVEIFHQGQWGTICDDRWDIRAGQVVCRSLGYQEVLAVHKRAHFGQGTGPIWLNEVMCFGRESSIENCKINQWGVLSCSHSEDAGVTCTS
# Chain of full length human MSR1 with a C-terminal Myc tag on HEK293.Myc.hMSR1 cells (human) (P21757 whole entry): as the sequence (P21757 whole entry, the tested form may be a part) above
# Chain of endogenously expressed human MSR1 on PMA-treated THP-1 cells (human) (P21757 whole entry): as the sequence (P21757 whole entry, the tested form may be a part) above
ratio of 11 nM antibody binding signal (RLU) to isotype control [1],ratio of 11 nM antibody binding signal (RLU) to isotype control [2],ratio of 11 nM antibody binding signal (RLU) to isotype control [3],% Blocking [5],% Blocking [6],% Blocking [7],Substance,also measured
1,1,1,,,,mIgG Isotype Control (antibody),
,,,,,,Isotype control (Table 19) (antibody),Total Binding at 4° C. (RFU) [4]: 186000 RFU; Total Binding at 37° C. (RFU) [4]: 1.09e+06 RFU
1,1,1,,,,hIgG1 Isotype Control (antibody),
,,,-4%,7%,16%,Mouse IgG1 Isotype control mAb (antibody),
,,,,,,"commercial anti-mouse MSR1 antibody (Sino Biological, Cat #50129-R004)",MFI [8]: 245000; S/N [8]: 97
,,,-8%,4%,3%,Human IgG1 Isotype Control mAb (antibody),
